According to article PMC3101103 (The Journal of Cell Biology, 2011):
One block for each molecule: values may come before it.

Columns and labels:
[1] = biological target: ACP-TM with the C-terminal YFP fragment at its C terminus (rabbit | not stated); experiment: split reporter
[2] = biological target: N-formyl peptide receptor (FPR), nonactivating mutant D71A (UniProt P21462); experiment: TIRF imaging, time course of surface-bound fluorescence
[3] = biological target: N-formyl peptide receptor (FPR), nonactivating mutant D71A (UniProt P21462); experiment: single-molecule TIRF imaging, 2D-3D Scatchard plot
[4] = biological target: the molecule itself; experiment: single-molecule TIRF imaging, duration of colocalization events
[5] = biological target: the molecule itself; experiment: single-molecule TIRF imaging, spot-intensity histograms against expression level

corrected lifetime of BiFC dimers [1]: 163 ms
Molecule: ACP-TM with the N-terminal YFP fragment at its C terminus (from UniProt P42212 1-155)

kon [2]: 7.6e+06 M⁻¹ s⁻¹ | Kd [3]: 2.2 nM
Molecule: N-formyl-Nle-Leu-Phe-Nle-Tyr-Lys conjugated with Alexa Fluor 594 (peptide)

B1: N-formyl peptide receptor (FPR), nonactivating mutant D71A (receptor, UniProt P21462 1-350, looked up)
chain: METNSSLPTNISGGTPAVSAGYLFLDIITYLVFAVTFVLGVLGNGLVIWVAGFRMTHTVTTISYLNLAVAAFCFTSTLPFFMVRKAMGGHWPFGWFLCKFVFTIVDINLFGSVFLIALIALDRCVCVLHPVWTQNHRTVSLAKKVIIGPWVMALLLTLPVIIRVTTVPGKTGTVACTFNFSPWTNDPKERINVAVAMLTVRGIIRFIIGFSAPMSIVAVSYGLIATKIHKQGLIKSSRPLRVLSFVAAAFFLCWSPYQVVALIATVRIRELLQGMYKEIGIAVDVTSALAFFNSCLNPMLYVFMGQDFRERLIHALPASLERALTEDSTQTSDTATNSTLPSAEVELQAK
koff [4]: 11 s⁻¹ | stoichiometry N [5]: 2
